For one substance, inhibition of rheumatoid synovial fluid T cell proliferation to p78 results are on record in patent US6995240.

For the experiment, the target named is HLA-DR on rheumatoid synovial fluid mononuclear cells (human). The experiment in a line: cell-based or functional assay.

As to “anti-HLA-DR monoclonal antibody L243 (ATCC)”, the inhibition of rheumatoid synovial fluid T cell proliferation to p78 was in the range of 66 to 84%.
